From IntAct's records for PubMed 11412997

Target: par6_caeel par-6 (UniProt Q9NAN2)
Sequence (Q9NAN2 whole entry): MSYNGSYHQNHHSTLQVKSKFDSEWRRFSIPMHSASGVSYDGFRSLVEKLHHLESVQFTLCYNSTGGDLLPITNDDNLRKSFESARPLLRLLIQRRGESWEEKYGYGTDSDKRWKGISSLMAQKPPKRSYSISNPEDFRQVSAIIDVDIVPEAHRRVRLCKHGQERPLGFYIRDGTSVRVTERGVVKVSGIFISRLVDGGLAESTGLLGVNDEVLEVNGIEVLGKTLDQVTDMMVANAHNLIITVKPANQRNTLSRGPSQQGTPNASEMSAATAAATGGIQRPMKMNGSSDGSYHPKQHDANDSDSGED

Sequence of Cell division control protein 42 homolog (Caenorhabditis elegans), Q05062 T17N (Q05062 whole entry T17N): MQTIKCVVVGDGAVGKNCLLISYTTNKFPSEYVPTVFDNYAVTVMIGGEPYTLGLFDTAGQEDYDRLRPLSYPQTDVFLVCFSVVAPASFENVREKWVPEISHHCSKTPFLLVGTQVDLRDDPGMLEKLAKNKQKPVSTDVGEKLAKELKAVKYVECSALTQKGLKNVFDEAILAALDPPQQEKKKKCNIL

effect of a mutation on the interaction: disrupting interaction
Substance: Cell division control protein 42 homolog (Caenorhabditis elegans), Q05062 T17N
